Data published in the supplement of paper PMC7125110.
± gives the standard error. This sample holds only a part of the variants without activity.

B1: glmS ribozyme (parent)
chain: AUAAAAGCGCCAGAACUACAGAAAUGUAGUUGACGAGGAGGAGGUUUAUCGAAUUUUCGGCGGAUGCCUCCAAA

How the values were obtained:
Details in all cases: with glucosamine-6-phosphate
glucosamine-6-phosphate [1] = variants of: B1; experiment: self-cleavage kobs at 160 uM GlcN6P; higher = faster cleavage; RNA array
Procedure, shortened: (§1)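 Glucosamine-6-phosphate in HEPES/KCl/Mg(OAc)2 buffer, at 40 μM to 10 mM, was flowed over barcoded ribozyme variants transcribed in situ by E. coli RNA polymerase on sequenced MiSeq chips. Tracking was through a hybridised Cy3 probe at 37 °C. kobs, kcat and KM came from exponential decay fits and weighted Michaelis–Menten fits of normalised per-tile medians.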

glucosamine-6-phosphate [2] = variants of: B1; experiment: self-cleavage kobs at 10000 uM GlcN6P; higher = faster cleavage; RNA array
Procedure, shortened: as §1

glucosamine-6-phosphate [3] = variants of: B1; experiment: self-cleavage kobs at 640 uM GlcN6P; higher = faster cleavage; RNA array
Procedure, shortened: as §1

glucosamine-6-phosphate [4] = variants of: B1; experiment: self-cleavage kobs at 2500 uM GlcN6P; higher = faster cleavage; RNA array
Procedure, shortened: as §1

Row | Variant | self-cleavage kobs at 160 uM GlcN6P (glucosamine-6-phosphate [1]) | self-cleavage kobs at 10000 uM GlcN6P (glucosamine-6-phosphate [2]) | self-cleavage kobs at 640 uM GlcN6P (glucosamine-6-phosphate [3]) | self-cleavage kobs at 2500 uM GlcN6P (glucosamine-6-phosphate [4])
1 | A36C G59A C71G | < 1e-05 s⁻¹ | < 1e-05 s⁻¹ |  | 
2 | U30C U55A | 3.75e-05 ± 1.3e-05 s⁻¹ |  | 9.3e-05 ± 1.6e-05 s⁻¹ | 
3 | G32U G51U G66A | < 1e-05 s⁻¹ |  | < 1e-05 s⁻¹ | 
4 | U31G G35A C67A | < 1e-05 s⁻¹ |  | < 1e-05 s⁻¹ | 
5 | U31G A33C U46G A53G G59A G63A | < 1e-05 s⁻¹ |  |  | < 1e-05 s⁻¹
6 | A33U G63U | < 1e-05 s⁻¹ | < 1e-05 s⁻¹ | < 1e-05 s⁻¹ | < 1e-05 s⁻¹
7 | C16A A52U | < 1e-05 s⁻¹ | 3.13e-05 ± 8.8e-06 s⁻¹ |  | 
8 | G29A G32C A33U G60C G66U | < 1e-05 s⁻¹ | < 1e-05 s⁻¹ |  | 
9 | G35A A39C | < 1e-05 s⁻¹ | < 1e-05 s⁻¹ | < 1e-05 s⁻¹ | < 1e-05 s⁻¹
10 | G29U A52G C61G C68U U69A | 4.87e-05 ± 1.6e-05 s⁻¹ |  | 3.32e-05 ± 1.6e-05 s⁻¹ | 
11 | C16U G51C | < 1e-05 s⁻¹ |  | < 1e-05 s⁻¹ | < 1e-05 s⁻¹
12 | A36G G38U C61U G66U | < 1e-05 s⁻¹ |  |  | 
13 | C16U A52G C68U | 6.54e-05 ± 2.2e-05 s⁻¹ |  | 0.000491 ± 0.00012 s⁻¹ | 0.000422 ± 0.00016 s⁻¹
14 | A33C A42U U46C U54G | < 1e-05 s⁻¹ |  |  | < 1e-05 s⁻¹
15 | G32C G51A C61G | < 1e-05 s⁻¹ |  |  | 
16 | A33C G35A G51C | < 1e-05 s⁻¹ |  | < 1e-05 s⁻¹ | < 1e-05 s⁻¹
17 | G26U C50G C68U | 0.000155 ± 5.5e-05 s⁻¹ |  |  | 
18 | G21U C71G | 0.000226 ± 5.1e-05 s⁻¹ |  | 0.000218 ± 3.9e-05 s⁻¹ | 0.000294 ± 5.9e-05 s⁻¹
19 | A33C G62A G63A | < 1e-05 s⁻¹ |  |  | < 1e-05 s⁻¹
20 | G35C G40C U47A G62U | < 1e-05 s⁻¹ |  | < 1e-05 s⁻¹ | 
21 | U31C G35C | < 1e-05 s⁻¹ | < 1e-05 s⁻¹ | < 1e-05 s⁻¹ | < 1e-05 s⁻¹
22 | C34A U47C A48C | < 1e-05 s⁻¹ |  |  | 
23 | C34G G59C | < 1e-05 s⁻¹ | < 1e-05 s⁻¹ | < 1e-05 s⁻¹ | 
24 | C34U U56C G62U C71A | < 1e-05 s⁻¹ |  |  | < 1e-05 s⁻¹
25 | A15G U47C G63A | < 1e-05 s⁻¹ |  | < 1e-05 s⁻¹ | < 1e-05 s⁻¹
26 | G35C A36G U49C A53C C68U | < 1e-05 s⁻¹ |  | < 1e-05 s⁻¹ | < 1e-05 s⁻¹
